As a reminder, the EC50 is the concentration at which the effect is half-maximal. The term Kd denotes the constant that tells how readily two partners part at equilibrium.

Residue numbers refer to the chain shown, from its start.

The values that follow come from US20140050743A1, “BINDING PROTEINS TO INHIBITORS OF COAGULATION FACTORS” (BAYER INTELLECTUAL PROPERTY GMBH, priority 2011, published 2014).

The chains are these.
B1: M18-A10: antibody, Vh SEQ ID NO: 215, Vl SEQ ID NO: 216 (antibody, listed as Homo Sapiens, V domains shown)
VH: EVQLLESGGGLVQPGGSLRLSCAASGFTFSSYGMSWVRQAPGKGLEWVSGISGSGGSTYYADSVKGRFTISRDNSKNTLYLQMNSLRAEDTAVYYCARDGGYDELDYWGQGTLVTVTS
VL: QSVLTQPPSASGTPGQRVTISCTGSSSNIGAGYVVHWYQQLPGTAPKLLIYDNNKRPSGVPDRFSGSKSGTSASLAISGLRSEDEADYYCAAWDDSLSAWVFGGGTKLTVL
B2: M16-A03: antibody, Vh SEQ ID NO: 211, Vl SEQ ID NO: 212 (antibody, listed as Homo Sapiens, V domains shown)
VH: EVQLLESGGGLVQPGGSLRLSCAASGFTFSSYAMSWVRQAPGKGLEWVSGISGSGGSTFYADSVKGRFTISRDNSENTLYLQMNSLRAEDTAVYYCARQTSSGLAGYSYGLDPWGQGTLVTVTS
VL: B1 VL with V34D, D52S, K55Q, A92G, A99G
B3: M16-D05: antibody, Vh SEQ ID NO: 213, Vl SEQ ID NO: 214 (antibody, listed as Homo Sapiens, V domains shown)
VH: EVQLLESGGGLVQPGGSLRLSCAASGFTFSAYWMAWVRQAPGKGLEWVSSISSSSSYIYYADSVKGRFTISRDNSKNTLYLQMNSLRAEDTAVYYCARVTEGGLDYWGQGTLVTVTS
VL: QSVLTQPPSASGTPGQRVTISCSGSSSNIGNNAVNWYQQLPGTAPKLLIYRNNQRPSGVPDRFSGSKSGTSASLAISGLRSEDEADYYCQSYDSSLSGWVFGGGTKLTVL
B4: M25-E05: antibody, Vh SEQ ID NO: 219, Vl SEQ ID NO: 220 (antibody, listed as Homo Sapiens, V domains shown)
VH: EVQLLESGGGLVQPGGSLRLSCAASGFTFSNAWMSWVRQAPGKGLEWVSSIHWNGGYIGYAESVKGRFTISRDNSKNTLYLQMNSLRAEDTAVYYCARVTLDAVDYWGQGTLVTVTS
VL: B3 VL with S94N, S95R, S97T, G98A
B5: M14-G07-28: antibody, Vh SEQ ID NO: 181, Vl SEQ ID NO: 182 (antibody, listed as Homo Sapiens, V domains shown)
VH: EVQLLESGGGLVQPGGSLRLSCAASGFTFSSYAMSWVRQAPGKGLEWVGGISGSGGSTYYADSVKGRFTISRDNSKNTLYLQMNSLRAEDTAVYYCARQGRTSFYLDVWGQGTLVTVSS
VL: QSVLTQPPSASGTPGQRVTISCSGSSSNIGSYYVYWYQQLPGTAPKLLIYDNNQRPSGVPDRFSGSKSGTSASLAISGLRSEDEADYYCVAWDDSYSGHWVFGGGTKLTVL
B6: M14-G07-32: antibody, Vh SEQ ID NO: 189, Vl SEQ ID NO: 190 (antibody, listed as Homo Sapiens, V domains shown)
VH: B5 VH with T28R
VL: B5 VL with S31A, N53R, Y96L
B7: M14-G07-37: antibody, Vh SEQ ID NO: 199, Vl SEQ ID NO: 200 (antibody, listed as Homo Sapiens, V domains shown)
VH: B5 VH with G49S, Q99E, R101E
VL: B5 VL with Y96W
B8: M14-G07-29: antibody, Vh SEQ ID NO: 183, Vl SEQ ID NO: 184 (antibody, listed as Homo Sapiens, V domains shown)
VH: B5 VH with T28R, G49S
VL: B5 VL with S31A, D94W, Y96W, H99T
B9: M14-G07-31: antibody, Vh SEQ ID NO: 187, Vl SEQ ID NO: 188 (antibody, listed as Homo Sapiens, V domains shown)
VH: B5 VH
VL: B5 VL with S31A, Y32F, D94W, Y96L, H99T
B10: M14-G07-2: antibody, Vh SEQ ID NO: 129, Vl SEQ ID NO: 130 (antibody, listed as Homo Sapiens, V domains shown)
VH: B5 VH
VL: B5 VL with S23C, S27R, Y96W, H99T
B11: M14-G07-33: antibody, Vh SEQ ID NO: 191, Vl SEQ ID NO: 192 (antibody, listed as Homo Sapiens, V domains shown)
VH: B5 VH with T28R
VL: B5 VL with S27R, S31A, Y32F, D94W
B12: M14-G07-34: antibody, Vh SEQ ID NO: 193, Vl SEQ ID NO: 194 (antibody, listed as Homo Sapiens, V domains shown)
VH: B5 VH with T28R
VL: B5 VL with S26T, N53R, Y96L, H99T
B13: M14-G07-30: antibody, Vh SEQ ID NO: 185, Vl SEQ ID NO: 186 (antibody, listed as Homo Sapiens, V domains shown)
VH: B5 VH with G49S
VL: B5 VL with S27R, Y32F, Y96L
B14: M14-G07-1: antibody, Vh SEQ ID NO: 127, Vl SEQ ID NO: 128 (antibody, listed as Homo Sapiens, V domains shown)
VH: B5 VH with T28R
VL: B5 VL with S27R, Y32F, Y96W, H99T

The test system of the first test is rivaroxaban induced FXa inhibition. Nature of the test: Functional neutralization of rivaroxaban in a biochemical Factor Xa activity assay. The settings on record: Table 6, 0.05 nM FXa, 0.6 nM rivaroxaban. As to the method:
Serial dilutions of test compounds in assay buffer (50 mM HEPES pH 7.8, 250 mM NaCl, 6 mM CaCl2, 0.01% Brij35, 1 mM glutathione, 4 mM EDTA, 0.05% bovine serum albumin) were performed (typical concentrations ranging from 5 μM to 0.0007 μM).
20 μL of the diluted test compounds were placed in 384 well microtiter plates (Greiner, Frickenhausen, Germany), followed by the addition of 10 μL of a 1:400 dilution (250 μM) of the FXa substrate Pefafluor Xa (100 mM in DMSO, Loxo, Dossenheim, Germany) in assay buffer. […] Simultaneously, control reactions without rivaroxaban were started.
During incubation at 32° C., reaction progress curves were monitored using a fluorescence microtiter plate reader (e.g Tecan Ultra Evolution, Tecan Group Ltd., Mannedorf, Switzerland; excitation 360 nm, emission 465 nm).
The dilution of FXa was chosen that in the control reactions the reaction kinetics was linear, and less than 50% of the substrate was consumed (typical final FXa concentration in the assay: 0.05 nM). […] Results are depicted in FIG. 1.
Consider B1, for which the EC50 was < 1000 nM.
As for B2, the concentration for a half-maximal effect (EC50) is < 2000 nM.
Regarding B3, the EC50 is < 1000 nM.
Same read-out and setting: the result for B4 reads < 1000 nM.

Biological target in the next test: not listed separately
Put plainly: Affinity by surface plasmon resonance (Biacore), immobilized Fab, analyte rivaroxaban. In kind it is binding. The settings on record: Table 6, immobilized Fabs, SPR (Biacore). An excerpt: “Binding affinity” refers to the strength of the sum total of noncovalent interactions between a single binding site of a molecule and its binding partner. Unless indicated otherwise, as used herein, “binding affinity” refers to intrinsic binding affinity which reflects a 1:1 interaction between members of a binding pair (e.g. an antibody and an antigen). The dissociation constant “KD” is commonly used to describe the affinity between a molecule (such as an antibody) and its binding partner (such as an antigen) i.e. how tightly a ligand binds to a particular protein. Ligand-protein affinities are influenced by non-covalent intermolecular interactions between the two molecules Affinity can be measured by common methods known in the art, including those described herein. In one embodiment, the “KD” or “KD value” according to this invention is measured by using surface plasmon resonance assays using a Biacore T100 instrument (GE Healthcare Biacore, Inc.) according to Example 5. The dissociation equilibrium constant (KD) was calculated based on the ratio of association (kon) and dissociation rated (koff) constants, obtained by fitting sensograms with a first order 1:1 binding model using Biacore Evaluation Software. Other suitable devices are BIACORE(R)-2000, a BIACORE (R)-3000 (BIAcore, Inc., Piscataway, N.J.), or ProteOn XPR36 instrument (Bio-Rad Laboratories, Inc.).
Binding affinities of Fab-fragments were determined by surface plasmon resonance analysis on a Biacore T100 instrument (GE Healthcare Biacore, Inc.). Fab fragments were diluted to a final concentration of 10 μg/ml in 10 mM sodium acetate, pH 4.5, and immobilized on a CM5 chip (GE Healthcare Biacore, Inc.) at levels of 3000-5000RU by amine-coupling chemistry for flow cells 2, 3 and 4, respectively. Flow cell 1 was used as a reference. […] Sensograms were generated after in-line reference cell correction followed by buffer sample subtraction. The dissociation equilibrium constant (KD) was calculated based on the ratio of association and dissociation rated constants, obtained by fitting sensograms with a first order 1:1 binding model using BiaEvaluation Software.
On the technique in general: SPR reads the build-up and loss of mass on a sensor chip optically.
With B1, the dissociation constant (Kd) is < 500 nM.
Turning to B2, the Kd is < 500 nM.
For the molecule B3, the Kd was < 500 nM.
In the case of B4, the dissociation constant Kd was < 500 nM.

System in a further test: not listed separately
Put plainly: ELISA-based activity assay of antibody variants without a competition step. In kind it is binding. Details: key: +++: Variants with an average ratio above reference plus 2×SD; +/−: variants with a ratio below reference minus 2×SD; ++: All variants with a performance in between both thresholds; −: Variants with a ratio below 0.5. The settings on record: Table 10, multiple substitutions within M14-G07, variant to reference ratio (reference 2-fold improved over wt). On the procedure:
To determine the activity of the mutated antibody variants on compound from Example 1K an equilibrium or dissociation limited ELISA assay format was used. Briefly, MTP plates (Nunc Maxisorp black, 460518) were coated with 4 μg/ml streptavidin (Calbiochem, 189730) diluted in coating buffer (Candor Bioscience GmbH, 121500) and incubated over night at 4° C. After washing with PBST, plates were blocked with 100% Smart Block (Candor Bioscience GmbH, 113500) in PBST for 1 h at room temperature and the washing step was repeated. Plates were incubated with compound from Example 1K at varying concentrations (0.3-200 nM) for 1 h at 37° C., washed with PBST and antibody fragments were immobilized by adding 25 μl of the crude bacterial cultures for 1 h at room temperature. After washing with PBST a competition step or the immediate detection was performed. […] For the detection of the residually bound Fabs a HRP-coupled anti-lambda antibody (Sigma, A5175) diluted in 10% Smart Block in PBST was added for 1 h at room temperature. After washing 10 μM Amplex Red (Invitrogen, A12222) were added and incubated for 10 to 30 min at room temperature followed by measurement of the fluorescence signal.
Provided in Table 9 are several examples of single and/or double amino acid substitutions introduced into the heavy and/or the light chain of M14-G07 (wt). Performance of the variants was analyzed in quadruples in the ELISA without a competition step and the FXa deinhibition assay (FXa DIA). In the ELISA, averages were calculated and normalized to the respective average expression level. Overall performance of variants was evaluated by comparing the variant to wt ratio from 2-3 independent experiments. Variants with an average ratio above wt plus 2×SD (standard deviation of the ratio) were considered as improved and are marked with “++”, whereas variants with a ratio below wt minus 2×SD were considered as reduced in their binding affinity and are marked with “−”. All variants with a performance in between both thresholds are marked with “+/−”. Variants with average fluorescence counts below the negative control (non-expressing cells) plus 3×SD were considered as non-binding and marked with “−−” with none of the variants fulfilling this criteria. In the FXa deinhibition assay averages were calculated and overall performance of variants was evaluated by comparing the variant to wt ratio from 2-3 independent experiments. Variants with an average ratio above wt plus 2×SD were considered as improved and are marked with “++”, whereas variants with a ratio below wt minus 2×SD were considered as either reduced in their binding affinity or non-binding and are marked with “−−”. All variants with a performance in between both thresholds are marked with “+/−”. Variants not analyzed are marked with “nd” (not determined). CDRs were defined according to Kabat.
Provided in Table 10 are examples of combined amino acid substitutions within M14-G07 antibodies. While not every combination is provided in Table 10, it is contemplated that the anti-rivaroxaban antibody may comprise any combination of modifications provided. Variant performance was analyzed in quadruples in the ELISA without a competition step. Averages were calculated, average background signals determined on a streptavidin coated plate without compound from Example 1K were subtracted if the compound from Example 1K concentration used for coating was below 10 nM and signals were normalized to the respective average expression level. Overall performance of variants was evaluated by comparing the variant to reference ratio from 2-3 independent experiments using a 2-fold improved reference variant as compared to wt. Variants with an average ratio above reference plus 2×SD are marked with “+++”, whereas variants with a ratio below reference minus 2×SD are marked with “+/−”. All variants with a performance in between both thresholds are marked with “++”. […]
In general terms: In an ELISA, binding on a coated surface is turned into a signal by an enzyme label.
As to B5, the ELISA entry is on record as “+++”.
Same read-out and setting: the result for B6 reads “+++”; that for B7, “+++”.
Still for that read-out and setting: the value for B8 was “+++”.
B9: the ELISA entry is on record as “+++”.
On the same count and under the same terms, the value for B10 was “+++”.
With B11, the ELISA entry is given as “+++”.
On to B12, for which the ELISA entry was “+++”.
In the case of B13, the ELISA entry was “+++”.
Take B14: the ELISA entry is on record as “+++”.
